Assay results published in publication PMC3748026, “The Mini-Chromosome Maintenance (Mcm) Complexes Interact with DNA Polymerase α-Primase and Stimulate Its Ability to Synthesize RNA Primers” (PLoS ONE, 2013).

Columns and labels:
[1] = target: mouse Mcm4/6/7 complex (His6-Mcm4, Mcm6, Mcm7-Flag) (mouse, UniProt P49717 1-862; P97311 1-821; Q61881 1-719); test: cell-based or functional assay
[2] = target: T1, mouse Mcm2∼7 complex (Mcm2/3/4/5/6/7), Flag tag on Mcm5 (mouse, UniProt P97310 1-904; P25206 1-812; P49717 1-862; P49718 1-734; P97311 1-821; Q61881 …); test: cell-based or functional assay
[3] = target: the molecule itself; test: native gel or EMSA; proteins alone or mixed, 25 mM Tris-HCl pH 7.5, 5 mM magnesium acetate, 20 mM 2-mercaptoethanol, 0.01% Triton X-100, 1 mM ATP, 30°C 15 min; 5% native PAGE at 4°C, silver staining; no DNA
[4] = target: T1, mouse Mcm2∼7 complex (Mcm2/3/4/5/6/7), …; test: co-IP; purified Mcm2∼7 (Flag tag on Mcm5) held on anti-Flag M2 antibody agarose beads, mixed with purified primase, His-p48 or GINS, with or without an oligonucleotide, GINS or DNase I; 50 mM Tris-HCl pH 7.5, 100 mM sodium acetate, 5 mM magnesium acetate, 1 mM ATP, 10% glycerol, 0.01% Triton X-100; 2 h at 4°C; eluted with 0.1 M glycine pH 2.8 or boiled; silver or SYPRO staining and Western blotting; settings: both partners purified
[5] = target: Mcm4/6/7 complex;DNA primase p48/p58 (mouse;human, UniProt P49717;P97311;Q61881;P49642;P49643 1-862;1-821;1-719;1-420;1-509, |); test: EMSA; 0.5 mM ATPgS; 2.3 nM Mcm4/6/7, 25-100 nM primase; slower band, proportional to primase; EMSA: 25 mM Tris-HCl pH 7.5, 40 mM Na acetate, 10 mM Mg acetate, 20 mM 2-mercaptoethanol, 0.25 mg/ml BSA, 0.5 mM ATPgS, 30 C 30 min; pull-down: 25 mM Tris-HCl pH 7.5, 100 mM Na acetate, 10 mM Mg acetate, 0.25 mg/ml casein, 1 mM DTT, 0.01% Triton-X, 0.5 mM ATPgS or 1 mM ATP, 30 C 30 min then beads 4 C 30 min; settings: protein: recombinant;recombinant; tags: His6-Mcm4; Mcm7-Flag;His6 on p58; p48 untagged; chain copies: 2;2;2;1;1; label: 5'-32P; single strand
Mcm4/6/7 complex = Mcm4/6/7 complex (mouse, UniProt P49717;P97311;Q61881 1-862;1-821;1-719); test: EMSA; 0.5 mM ATPgS; 2.3 nM Mcm4/6/7; EMSA: 25 mM Tris-HCl pH 7.5, 40 mM Na acetate, 10 mM Mg acetate, 20 mM 2-mercaptoethanol, 0.25 mg/ml BSA, 0.5 mM ATPgS, 30 C 30 min; pull-down: 25 mM Tris-HCl pH 7.5, 100 mM Na acetate, 10 mM Mg acetate, 0.25 mg/ml casein, 1 mM DTT, 0.01% Triton-X, 0.5 mM ATPgS or 1 mM ATP, 30 C 30 min then beads 4 C 30 min; settings: protein: recombinant; tags: His6-Mcm4; Mcm7-Flag; chain copies: 2;2;2; label: 5'-32P; single strand
DNA primase p48/p58 = target: T2, DNA primase p48/p58 (human, UniProt P49642;P49643 1-420;1-509); test: EMSA; 0.5 mM ATPgS; EMSA: 25 mM Tris-HCl pH 7.5, 40 mM Na acetate, 10 mM Mg acetate, 20 mM 2-mercaptoethanol, 0.25 mg/ml BSA, 0.5 mM ATPgS, 30 C 30 min; pull-down: 25 mM Tris-HCl pH 7.5, 100 mM Na acetate, 10 mM Mg acetate, 0.25 mg/ml casein, 1 mM DTT, 0.01% Triton-X, 0.5 mM ATPgS or 1 mM ATP, 30 C 30 min then beads 4 C 30 min; settings: protein: recombinant; tags: His6 on p58; p48 untagged; copies: 1;1; label: 5'-32P; single strand
T2 sequence 1: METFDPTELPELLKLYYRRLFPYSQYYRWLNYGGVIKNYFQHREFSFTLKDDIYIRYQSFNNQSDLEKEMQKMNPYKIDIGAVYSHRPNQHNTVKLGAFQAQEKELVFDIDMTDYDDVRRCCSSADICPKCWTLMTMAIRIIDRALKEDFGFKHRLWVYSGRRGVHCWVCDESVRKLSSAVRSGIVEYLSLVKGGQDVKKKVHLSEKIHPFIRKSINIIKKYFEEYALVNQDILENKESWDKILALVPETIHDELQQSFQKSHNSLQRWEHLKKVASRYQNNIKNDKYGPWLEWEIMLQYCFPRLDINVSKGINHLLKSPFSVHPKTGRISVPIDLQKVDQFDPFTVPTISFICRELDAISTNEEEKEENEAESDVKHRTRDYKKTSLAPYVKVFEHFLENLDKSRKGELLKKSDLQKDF
T2 sequence 2: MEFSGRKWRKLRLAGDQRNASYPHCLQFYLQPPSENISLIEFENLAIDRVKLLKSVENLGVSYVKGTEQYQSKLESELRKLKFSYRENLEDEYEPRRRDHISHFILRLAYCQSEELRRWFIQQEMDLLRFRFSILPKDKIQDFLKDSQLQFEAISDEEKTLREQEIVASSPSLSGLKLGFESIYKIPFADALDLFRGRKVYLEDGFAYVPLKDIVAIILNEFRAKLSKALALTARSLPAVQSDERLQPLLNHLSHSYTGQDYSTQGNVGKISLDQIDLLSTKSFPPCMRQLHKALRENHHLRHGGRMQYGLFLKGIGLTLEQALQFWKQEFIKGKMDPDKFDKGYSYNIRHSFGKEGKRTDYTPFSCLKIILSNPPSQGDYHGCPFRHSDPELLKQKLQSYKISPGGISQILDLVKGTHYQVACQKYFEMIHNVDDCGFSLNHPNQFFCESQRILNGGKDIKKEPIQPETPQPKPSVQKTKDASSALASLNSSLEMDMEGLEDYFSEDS

Chain of mouse Mcm4/6/7 complex (His6-Mcm4, Mcm6, Mcm7-Flag) (P49717 whole entry, chain 1 of 3): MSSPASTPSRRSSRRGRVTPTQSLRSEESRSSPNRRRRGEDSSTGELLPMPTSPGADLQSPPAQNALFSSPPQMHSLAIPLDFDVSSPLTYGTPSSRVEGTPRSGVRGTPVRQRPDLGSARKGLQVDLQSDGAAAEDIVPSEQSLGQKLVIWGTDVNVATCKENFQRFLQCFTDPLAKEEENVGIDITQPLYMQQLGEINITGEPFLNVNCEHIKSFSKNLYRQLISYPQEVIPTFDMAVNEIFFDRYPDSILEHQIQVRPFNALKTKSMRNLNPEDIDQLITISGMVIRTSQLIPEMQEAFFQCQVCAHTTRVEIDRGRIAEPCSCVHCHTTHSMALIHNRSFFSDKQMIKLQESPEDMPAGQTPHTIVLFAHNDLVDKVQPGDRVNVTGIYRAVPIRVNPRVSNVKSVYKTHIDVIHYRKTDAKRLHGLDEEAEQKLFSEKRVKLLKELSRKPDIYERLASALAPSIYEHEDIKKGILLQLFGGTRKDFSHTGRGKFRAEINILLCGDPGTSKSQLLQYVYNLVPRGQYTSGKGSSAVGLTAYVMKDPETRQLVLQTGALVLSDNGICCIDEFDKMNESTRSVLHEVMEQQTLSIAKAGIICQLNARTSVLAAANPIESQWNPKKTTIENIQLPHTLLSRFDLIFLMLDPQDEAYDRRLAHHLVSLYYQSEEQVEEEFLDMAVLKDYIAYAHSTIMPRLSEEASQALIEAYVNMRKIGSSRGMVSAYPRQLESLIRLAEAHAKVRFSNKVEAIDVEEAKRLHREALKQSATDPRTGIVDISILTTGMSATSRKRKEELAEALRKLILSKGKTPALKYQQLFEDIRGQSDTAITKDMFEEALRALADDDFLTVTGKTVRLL
Chain of mouse Mcm4/6/7 complex (His6-Mcm4, Mcm6, Mcm7-Flag) (P97311 whole entry, chain 2 of 3): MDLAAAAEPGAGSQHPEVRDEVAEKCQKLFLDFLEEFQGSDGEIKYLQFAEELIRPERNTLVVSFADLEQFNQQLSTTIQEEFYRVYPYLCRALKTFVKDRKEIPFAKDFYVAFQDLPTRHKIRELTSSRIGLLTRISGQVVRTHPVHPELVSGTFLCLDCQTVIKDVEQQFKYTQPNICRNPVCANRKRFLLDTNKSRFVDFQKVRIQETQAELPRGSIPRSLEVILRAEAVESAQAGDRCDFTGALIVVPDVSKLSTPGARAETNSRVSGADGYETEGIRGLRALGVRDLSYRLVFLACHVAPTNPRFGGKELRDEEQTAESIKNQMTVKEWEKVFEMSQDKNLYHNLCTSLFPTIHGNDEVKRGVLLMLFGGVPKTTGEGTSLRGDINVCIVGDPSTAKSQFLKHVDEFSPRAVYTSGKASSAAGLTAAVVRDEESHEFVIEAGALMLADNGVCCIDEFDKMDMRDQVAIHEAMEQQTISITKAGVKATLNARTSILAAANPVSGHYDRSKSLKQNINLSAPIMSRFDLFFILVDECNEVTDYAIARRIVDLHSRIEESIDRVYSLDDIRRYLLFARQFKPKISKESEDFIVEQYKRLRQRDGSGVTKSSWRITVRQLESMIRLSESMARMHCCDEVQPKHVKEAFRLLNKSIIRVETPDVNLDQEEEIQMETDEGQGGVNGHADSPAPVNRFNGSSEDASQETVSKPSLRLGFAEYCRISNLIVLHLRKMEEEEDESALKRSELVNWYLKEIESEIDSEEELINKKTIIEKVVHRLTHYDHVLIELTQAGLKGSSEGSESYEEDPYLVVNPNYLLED
Chain of mouse Mcm4/6/7 complex (His6-Mcm4, Mcm6, Mcm7-Flag) (Q61881 whole entry, chain 3 of 3): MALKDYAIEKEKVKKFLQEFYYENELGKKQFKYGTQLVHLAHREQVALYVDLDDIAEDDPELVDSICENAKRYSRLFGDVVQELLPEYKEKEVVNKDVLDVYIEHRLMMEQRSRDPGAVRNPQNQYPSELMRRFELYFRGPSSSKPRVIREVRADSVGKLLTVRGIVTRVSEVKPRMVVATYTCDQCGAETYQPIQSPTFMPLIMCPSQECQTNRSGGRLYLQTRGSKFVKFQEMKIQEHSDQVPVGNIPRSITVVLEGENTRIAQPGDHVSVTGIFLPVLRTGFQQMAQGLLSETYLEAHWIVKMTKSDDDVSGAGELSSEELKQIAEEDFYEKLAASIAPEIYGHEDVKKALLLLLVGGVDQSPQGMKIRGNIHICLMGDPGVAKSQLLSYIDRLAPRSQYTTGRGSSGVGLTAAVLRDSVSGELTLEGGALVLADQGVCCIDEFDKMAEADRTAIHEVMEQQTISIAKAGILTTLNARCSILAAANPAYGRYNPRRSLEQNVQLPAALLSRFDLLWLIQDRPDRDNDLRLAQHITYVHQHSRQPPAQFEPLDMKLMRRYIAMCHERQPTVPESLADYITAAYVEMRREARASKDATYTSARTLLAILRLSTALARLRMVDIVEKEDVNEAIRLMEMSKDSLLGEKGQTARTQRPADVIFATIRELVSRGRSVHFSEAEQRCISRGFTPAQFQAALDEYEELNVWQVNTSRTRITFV
Chain of Mcm4/6/7 complex;DNA primase p48/p58 (P49717 whole entry, chain 1 of 3): as the sequence (P49717 whole entry, chain 1 of 3) above
Chain of Mcm4/6/7 complex;DNA primase p48/p58 (P97311 whole entry, chain 2 of 3): as the sequence (P97311 whole entry, chain 2 of 3) above
Chain of Mcm4/6/7 complex;DNA primase p48/p58 (Q61881 whole entry, chain 3 of 3): as the sequence (Q61881 whole entry, chain 3 of 3) above
Chain of Mcm4/6/7 complex (P49717 whole entry, chain 1 of 3): as the sequence (P49717 whole entry, chain 1 of 3) above
Chain of Mcm4/6/7 complex (P97311 whole entry, chain 2 of 3): as the sequence (P97311 whole entry, chain 2 of 3) above
Chain of Mcm4/6/7 complex (Q61881 whole entry, chain 3 of 3): as the sequence (Q61881 whole entry, chain 3 of 3) above

B1: human DNA primase p48/p58 hetero-dimeric complex (His-tagged p58, non-tagged p48) (complex)
chain 1: METFDPTELPELLKLYYRRLFPYSQYYRWLNYGGVIKNYFQHREFSFTLKDDIYIRYQSFNNQSDLEKEMQKMNPYKIDIGAVYSHRPNQHNTVKLGAFQAQEKELVFDIDMTDYDDVRRCCSSADICPKCWTLMTMAIRIIDRALKEDFGFKHRLWVYSGRRGVHCWVCDESVRKLSSAVRSGIVEYLSLVKGGQDVKKKVHLSEKIHPFIRKSINIIKKYFEEYALVNQDILENKESWDKILALVPETIHDELQQSFQKSHNSLQRWEHLKKVASRYQNNIKNDKYGPWLEWEIMLQYCFPRLDINVSKGINHLLKSPFSVHPKTGRISVPIDLQKVDQFDPFTVPTISFICRELDAISTNEEEKEENEAESDVKHRTRDYKKTSLAPYVKVFEHFLENLDKSRKGELLKKSDLQKDF
chain 2: MEFSGRKWRKLRLAGDQRNASYPHCLQFYLQPPSENISLIEFENLAIDRVKLLKSVENLGVSYVKGTEQYQSKLESELRKLKFSYRENLEDEYEPRRRDHISHFILRLAYCQSEELRRWFIQQEMDLLRFRFSILPKDKIQDFLKDSQLQFEAISDEEKTLREQEIVASSPSLSGLKLGFESIYKIPFADALDLFRGRKVYLEDGFAYVPLKDIVAIILNEFRAKLSKALALTARSLPAVQSDERLQPLLNHLSHSYTGQDYSTQGNVGKISLDQIDLLSTKSFPPCMRQLHKALRENHHLRHGGRMQYGLFLKGIGLTLEQALQFWKQEFIKGKMDPDKFDKGYSYNIRHSFGKEGKRTDYTPFSCLKIILSNPPSQGDYHGCPFRHSDPELLKQKLQSYKISPGGISQILDLVKGTHYQVACQKYFEMIHNVDDCGFSLNHPNQFFCESQRILNGGKDIKKEPIQPETPQPKPSVQKTKDASSALASLNSSLEMDMEGLEDYFSEDS
notes: DNA primase small subunit p48, human; DNA primase large subunit p58, human; End of the His tag is read from the printed name His-p58; also called His-p58/p48 complex; His-tagged p48/p58 complex; source: E. coli BL21 (DE3) RIL, purified as previously described [58]; not shown: His tag, N-terminal, kept
RNA primer synthesis by p48/p58 primase on M13 ssDNA with 100-600 ng of Mcm4/6/7 [1]: 4 to 7 fold
RNA primer synthesis by p48/p58 primase on poly(dT) with 100-600 ng of Mcm4/6/7 [1]: ~3 fold
RNA primer synthesis by p48/p58 primase on poly(dT) with 100-400 ng of Mcm2∼7 [2]: ~3 fold
binding result [3]: binds

B2: His-tagged p48 alone (human DNA primase p48 single subunit) (natural protein, UniProt P49642 1-420, looked up)
chain: METFDPTELPELLKLYYRRLFPYSQYYRWLNYGGVIKNYFQHREFSFTLKDDIYIRYQSFNNQSDLEKEMQKMNPYKIDIGAVYSHRPNQHNTVKLGAFQAQEKELVFDIDMTDYDDVRRCCSSADICPKCWTLMTMAIRIIDRALKEDFGFKHRLWVYSGRRGVHCWVCDESVRKLSSAVRSGIVEYLSLVKGGQDVKKKVHLSEKIHPFIRKSINIIKKYFEEYALVNQDILENKESWDKILALVPETIHDELQQSFQKSHNSLQRWEHLKKVASRYQNNIKNDKYGPWLEWEIMLQYCFPRLDINVSKGINHLLKSPFSVHPKTGRISVPIDLQKVDQFDPFTVPTISFICRELDAISTNEEEKEENEAESDVKHRTRDYKKTSLAPYVKVFEHFLENLDKSRKGELLKKSDLQKDF
notes: DNA primase small subunit p48, human; End of the His tag is read from the printed name His-p48; also called His-p48; source: E. coli BL21 (DE3) RIL, purified as previously described [58]; not shown: His tag, N-terminal, kept
binding result [4]: binds

B3: 132-mer pyrimidine-rich oligonucleotide (ssDNA)
DNA: CCACACATGATTTGTTTGCTCCCTGAAATGATCTATATTTAATATATAATGTATATTCCCTCGGGATTTTTTATTTTGTGTTATTCCACGGCATGAAAAACAAAAAACATTCTTCTCATCCTTGGTCCCTCA
binding result [5]: binds
binding result (Mcm4/6/7 complex): binds
binding result (DNA primase p48/p58): binds
